Reference: article PMC10397247
Read-outs that look alike come from different tables or passages of the source.

Tests used:
[1] = molecular target: T1, 4H626-bA; assay: two-hybrid library CCNG1;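 also: natural log of median RNA to DNA barcode read ratio; higher means stronger binding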
T1 chain: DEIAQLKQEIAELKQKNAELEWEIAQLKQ

[2] = molecular target: T2, 4H3858-bA; assay: two-hybrid library CCNG1;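 also: natural log of median RNA to DNA barcode read ratio; higher means stronger binding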
T2 chain: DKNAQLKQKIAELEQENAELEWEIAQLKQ

[3] = molecular target: T3, 4H1710-bA; assay: two-hybrid library CCNG1;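 also: natural log of median RNA to DNA barcode read ratio; higher means stronger binding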
T3 chain: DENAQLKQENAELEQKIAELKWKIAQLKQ

[4] = molecular target: T4, 4H3817-bA; assay: two-hybrid library CCNG1;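 also: natural log of median RNA to DNA barcode read ratio; higher means stronger binding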
T4 chain: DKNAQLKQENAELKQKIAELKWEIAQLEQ

[5] = molecular target: T5, 4H3162-bA; assay: two-hybrid library CCNG1;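 also: natural log of median RNA to DNA barcode read ratio; higher means stronger binding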
T5 chain: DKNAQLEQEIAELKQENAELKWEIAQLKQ

[6] = molecular target: T6, 4H3298-bA; assay: two-hybrid library CCNG1;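 also: natural log of median RNA to DNA barcode read ratio; higher means stronger binding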
T6 chain: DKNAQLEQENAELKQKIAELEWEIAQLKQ

[7] = molecular target: T7, 4H1373-bA; assay: two-hybrid library CCNG1
T7 chain: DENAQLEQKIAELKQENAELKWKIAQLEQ

[8] = molecular target: T8, 4H3277-bA; assay: two-hybrid library CCNG1
T8 chain: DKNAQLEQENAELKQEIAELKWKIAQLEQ

[9] = molecular target: T9, 4H1449-bA; assay: two-hybrid library CCNG1
T9 chain: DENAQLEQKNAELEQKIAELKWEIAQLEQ

[10] = molecular target: T10, 4H338-bH; assay: two-hybrid library CCNG1
T10 chain: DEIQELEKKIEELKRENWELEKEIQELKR

[11] = molecular target: T11, 4H591-bA; assay: two-hybrid library CCNG1
T11 chain: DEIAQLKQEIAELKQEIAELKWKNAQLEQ

[12] = molecular target: T12, 4H3497-bA; assay: two-hybrid library CCNG1
T12 chain: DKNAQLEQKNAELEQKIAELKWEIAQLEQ

[13] = molecular target: T13, 4H850-bA; assay: two-hybrid library CCNG1
T13 chain: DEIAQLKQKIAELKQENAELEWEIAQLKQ

[14] = molecular target: T14, 4H3926-bA; assay: two-hybrid library CCNG1
T14 chain: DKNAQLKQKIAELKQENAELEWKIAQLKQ

[15] = molecular target: T15, 4H570-bA; assay: two-hybrid library CCNG1
T15 chain: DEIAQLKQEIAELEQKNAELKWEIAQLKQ

[16] = molecular target: T16, 4H3638-bA; assay: two-hybrid library CCNG1
T16 chain: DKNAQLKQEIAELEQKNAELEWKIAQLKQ

[17] = molecular target: T17, 4H1348-bA; assay: two-hybrid library CCNG1
T17 chain: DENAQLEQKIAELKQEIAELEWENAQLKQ

[18] = molecular target: T18, 4H3613-bA; assay: two-hybrid library CCNG1
T18 chain: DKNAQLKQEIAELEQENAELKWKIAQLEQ

[19] = molecular target: T19, 4H1544-bA; assay: two-hybrid library CCNG1
T19 chain: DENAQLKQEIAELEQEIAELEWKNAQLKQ

[20] = molecular target: T20, 4H3974-bA; assay: two-hybrid library CCNG1
T20 chain: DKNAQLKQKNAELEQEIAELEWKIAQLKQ

[21] = molecular target: T21, 4H3628-bA; assay: two-hybrid library CCNG1
T21 chain: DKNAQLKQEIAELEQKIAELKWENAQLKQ

[22] = molecular target: T22, 4H1899-bA; assay: two-hybrid library CCNG1
T22 chain: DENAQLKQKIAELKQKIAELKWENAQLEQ

[23] = molecular target: T23, 4H3462-bA; assay: two-hybrid library CCNG1
T23 chain: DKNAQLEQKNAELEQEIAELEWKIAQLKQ

[24] = molecular target: T24, 4H1985-bA; assay: two-hybrid library CCNG1
T24 chain: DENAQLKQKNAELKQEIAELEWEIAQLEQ

[25] = molecular target: T25, 4H3175-bA; assay: two-hybrid library CCNG1
T25 chain: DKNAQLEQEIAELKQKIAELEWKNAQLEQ

[26] = molecular target: T26, 4H906-bA; assay: two-hybrid library CCNG1
T26 chain: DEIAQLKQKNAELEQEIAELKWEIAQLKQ

[27] = molecular target: T27, O8-AA; assay: two-hybrid library CCmax; settings: mean of both orientations
T27 chain: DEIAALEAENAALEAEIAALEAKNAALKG

[28] = molecular target: T28, P10-AA; assay: two-hybrid library CCmax; settings: mean of both orientations
T28 chain: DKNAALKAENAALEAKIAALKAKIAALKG

[29] = molecular target: T29, O11-AA; assay: two-hybrid library CCmax
T29 chain: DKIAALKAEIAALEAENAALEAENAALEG

[30] = molecular target: T30, O2-AA; assay: two-hybrid library CCmax; settings: mean of both orientations
T30 chain: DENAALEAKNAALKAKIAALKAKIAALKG

[31] = molecular target: T31, O4-AA; assay: two-hybrid library CCmax; settings: mean of both orientations
T31 chain: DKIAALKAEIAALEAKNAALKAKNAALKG

[32] = molecular target: T32, O5-AA; assay: two-hybrid library CCmax
T32 chain: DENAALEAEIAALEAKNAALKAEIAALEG

[33] = molecular target: T33, O7-AA; assay: two-hybrid library CCmax; settings: mean of both orientations
T33 chain: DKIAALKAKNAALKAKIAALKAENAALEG

[34] = molecular target: T34, O3-AA; assay: two-hybrid library CCmax; settings: mean of both orientations
T34 chain: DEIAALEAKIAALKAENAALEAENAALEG

[35] = molecular target: T35, P9-AA; assay: two-hybrid library CCmax; settings: mean of both orientations
T35 chain: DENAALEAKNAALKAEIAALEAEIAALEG

[36] = molecular target: T36, O13-AA; assay: two-hybrid library CCmax; settings: mean of both orientations
T36 chain: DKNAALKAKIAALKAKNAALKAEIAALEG

[37] = molecular target: T37, O14-AA; assay: two-hybrid library CCmax; settings: mean of both orientations
T37 chain: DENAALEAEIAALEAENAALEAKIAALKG

[38] = molecular target: T38, O1-AA; assay: two-hybrid library CCmax
T38 chain: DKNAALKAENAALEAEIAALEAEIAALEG

[39] = molecular target: T39, O6-AA; assay: two-hybrid library CCmax; settings: mean of both orientations
T39 chain: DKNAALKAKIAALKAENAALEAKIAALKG

[40] = molecular target: T40, 4H745-AA; assay: two-hybrid library CCmax; settings: mean of both orientations
T40 chain: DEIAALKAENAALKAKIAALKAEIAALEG

[41] = molecular target: T41, 4H891-AA; assay: two-hybrid library CCmax; settings: mean of both orientations
T41 chain: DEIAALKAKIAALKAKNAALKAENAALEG

[42] = molecular target: T42, 4H797-AA; assay: two-hybrid library CCmax; settings: mean of both orientations
T42 chain: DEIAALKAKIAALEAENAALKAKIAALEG

[43] = molecular target: T43, 4H3130-AA; assay: two-hybrid library CCmax; settings: mean of both orientations
T43 chain: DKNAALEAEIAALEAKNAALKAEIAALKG

[44] = molecular target: T44, 4H3395-AA; assay: two-hybrid library CCmax; settings: mean of both orientations
T44 chain: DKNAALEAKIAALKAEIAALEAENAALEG

[45] = molecular target: T45, 4H94-AA; assay: two-hybrid library CCmax; settings: mean of both orientations
T45 chain: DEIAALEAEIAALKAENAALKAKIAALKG

[46] = molecular target: T46, 4H310-AA; assay: two-hybrid library CCmax; settings: mean of both orientations
T46 chain: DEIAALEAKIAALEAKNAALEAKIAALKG

[47] = molecular target: T47, 4H3753-AA; assay: two-hybrid library CCmax; settings: mean of both orientations
T47 chain: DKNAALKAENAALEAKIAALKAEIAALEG

[48] = molecular target: T48, 4H570-AA; assay: two-hybrid library CCmax; settings: mean of both orientations
T48 chain: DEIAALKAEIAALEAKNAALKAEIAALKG

[49] = molecular target: T49, 4H458-AA; assay: two-hybrid library CCmax; settings: mean of both orientations
T49 chain: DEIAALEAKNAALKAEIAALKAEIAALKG

[50] = molecular target: T50, 4H909-AA; assay: two-hybrid library CCmax; settings: mean of both orientations
T50 chain: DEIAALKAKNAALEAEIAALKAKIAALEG

[51] = molecular target: T51, 4H3381-AA; assay: two-hybrid library CCmax; settings: mean of both orientations
T51 chain: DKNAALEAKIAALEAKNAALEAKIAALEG

[52] = molecular target: T52, 4H3697-AA; assay: two-hybrid library CCmax; settings: mean of both orientations
T52 chain: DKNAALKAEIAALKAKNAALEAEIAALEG

[53] = molecular target: T53, 4H629-AA; assay: two-hybrid library CCmax; settings: mean of both orientations
T53 chain: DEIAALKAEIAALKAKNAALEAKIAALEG

[54] = molecular target: T54, 4H710-AA; assay: two-hybrid library CCmax; settings: mean of both orientations
T54 chain: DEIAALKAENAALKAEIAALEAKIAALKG

[55] = molecular target: T55, 4H3865-AA; assay: two-hybrid library CCmax; settings: mean of both orientations
T55 chain: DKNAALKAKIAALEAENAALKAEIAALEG

[56] = molecular target: T56, 4H485-AA; assay: two-hybrid library CCmax; settings: mean of both orientations
T56 chain: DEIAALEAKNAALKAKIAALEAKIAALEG

[57] = molecular target: T57, 4H3165-AA; assay: two-hybrid library CCmax; settings: mean of both orientations
T57 chain: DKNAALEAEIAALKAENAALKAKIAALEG

[58] = molecular target: T58, 4H3120-AA; assay: two-hybrid library CCmax; settings: mean of both orientations
T58 chain: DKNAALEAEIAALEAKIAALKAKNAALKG

[59] = molecular target: T59, 4H3016-AA; assay: two-hybrid library CCmax
T59 chain: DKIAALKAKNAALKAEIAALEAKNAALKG

[60] = molecular target: T60, 4H384-AA; assay: two-hybrid library CCmax; settings: mean of both orientations
T60 chain: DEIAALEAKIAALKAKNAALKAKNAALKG

[61] = molecular target: T61, 4H3590-AA; assay: two-hybrid library CCmax; settings: mean of both orientations
T61 chain: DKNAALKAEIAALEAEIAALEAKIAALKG

[62] = molecular target: T62, 4H930-AA; assay: two-hybrid library CCmax; settings: mean of both orientations
T62 chain: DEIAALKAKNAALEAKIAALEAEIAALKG

[63] = molecular target: T63, 4H536-AA; assay: two-hybrid library CCmax; settings: mean of both orientations
T63 chain: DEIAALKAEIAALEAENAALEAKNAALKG

[64] = molecular target: T64, 4H3410-AA; assay: two-hybrid library CCmax; settings: mean of both orientations
T64 chain: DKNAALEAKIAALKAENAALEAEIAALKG

[65] = molecular target: T65, 4H850-AA; assay: two-hybrid library CCmax; settings: mean of both orientations
T65 chain: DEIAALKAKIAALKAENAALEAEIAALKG

Binder: DENAQLEQKIAELKQEIAELEWENAQLKQ [4H1348-bA]
- interaction score [1]: -0.434
- interaction score [2]: -0.895
- interaction score [3]: 0.798
- interaction score [4]: -0.318
- interaction score [5]: -0.332
- interaction score [6]: -0.624
- interaction score [7]: -0.7
- interaction score [8]: -0.24
- interaction score [9]: -0.151
- interaction score [10]: 1.22
- interaction score [11]: -1.02
- interaction score [12]: -0.616
- interaction score [13]: -0.292
- interaction score [14]: -0.392
- interaction score [15]: -0.301
- interaction score [16]: -0.0281
- interaction score [17]: 0.78
- interaction score [18]: -1.05
- interaction score [19]: -0.0997
- interaction score [20]: 0.469
- interaction score [21]: 1.84
- interaction score [22]: 1.63
- interaction score [23]: 0.657
- interaction score [24]: -0.366
- interaction score [25]: 0.0318
- interaction score [26]: -0.721

Binder: DKNAALKAENAALEAEIAALEAEIAALEG [O1-AA]
- interaction score [27]: -1.41
- interaction score [28]: 1.05
- interaction score [29]: -1.61
- interaction score [30]: 2.13
- interaction score [31]: -1.07
- interaction score [32]: -1.72
- interaction score [33]: -0.639
- interaction score [34]: -1.57
- interaction score [35]: -0.278
- interaction score [36]: 0.0154
- interaction score [37]: -1.66
- interaction score [38]: -2.06
- interaction score [39]: -1.79

Binder: DKIAALKAKNAALKAEIAALEAKNAALKG [4H3016-AA]
- interaction score [40]: 0.997
- interaction score [41]: -1.63
- interaction score [27]: 1.56
- interaction score [42]: -1.65
- interaction score [43]: -0.405
- interaction score [44]: -1.1
- interaction score [45]: -0.745
- interaction score [46]: -0.901
- interaction score [47]: 0.667
- interaction score [48]: -1.4
- interaction score [49]: -1.13
- interaction score [50]: -0.857
- interaction score [51]: -1.11
- interaction score [28]: -0.503
- interaction score ([29]; mean of both orientations): -1.4
- interaction score [30]: -1.29
- interaction score [52]: -0.432
- interaction score [53]: -1.28
- interaction score [31]: -1.64
- interaction score [54]: -1.35
- interaction score ([32]; mean of both orientations): -0.896
- interaction score [55]: -1.38
- interaction score [56]: -0.786
- interaction score [33]: 0.0246
- interaction score [57]: -1.17
- interaction score [34]: -0.74
- interaction score [58]: -1.33
- interaction score [59]: -1.56
- interaction score [60]: -1.89
- interaction score [35]: -0.637
- interaction score [61]: 0.669
- interaction score [62]: -1.32
- interaction score [63]: -0.944
- interaction score [64]: 0.759
- interaction score [36]: -1.87
- interaction score [37]: 2
- interaction score ([38]; mean of both orientations): -0.276
- interaction score [39]: 0.964
- interaction score [65]: -0.436
